Measurements reported in patent US7906616B2, “Truncated DANCE, DANCE complex and method of using these” (Kansai Medical University, priority 2004, dated 2011).

Key:
human DANCE = biological target: T1, human DANCE (Homo sapiens, UniProt Q9UBX5); assay: In vitro binding assay, FLAG-tagged DANCE constructs with Myc-tagged DANCE; conditions: protein solutions from 293T cells mixed on ice 1 hour, anti-FLAG precipitation, anti-Myc detection
T1 construct: Myc; expressed in transfected cells; host or cells: 293T cells; culture supernatant mixed with cell extract
T1 sequence (Q9UBX5 24-448): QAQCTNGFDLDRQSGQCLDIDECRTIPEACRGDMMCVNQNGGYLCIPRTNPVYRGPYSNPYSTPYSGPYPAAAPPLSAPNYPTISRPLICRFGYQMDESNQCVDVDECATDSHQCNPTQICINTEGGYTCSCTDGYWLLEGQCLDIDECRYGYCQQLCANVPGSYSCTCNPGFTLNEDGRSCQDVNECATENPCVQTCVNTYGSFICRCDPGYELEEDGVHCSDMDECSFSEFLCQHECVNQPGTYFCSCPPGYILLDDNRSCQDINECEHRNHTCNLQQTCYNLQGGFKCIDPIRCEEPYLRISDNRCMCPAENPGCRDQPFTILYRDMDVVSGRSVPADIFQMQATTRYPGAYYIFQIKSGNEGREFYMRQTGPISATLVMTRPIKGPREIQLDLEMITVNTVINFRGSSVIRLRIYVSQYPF
Procedure: (§1) These were performed by methods described in “Molecular Cloning, 3rd Ed.”.
(§2) A human DANCE construct with FLAG tag (FIG. 8), a human DANCE construct with Myc tag, and a human LTBP2 construct were separately transfected to 293T cells. After cultivation in serum-free medium for 48 hours, each culture supernatant and cell extract were mixed, and this was used as the protein solution. A protein solution from the DANCE construct with FLAG tag and a protein solution from DANCE or LTBP2 with Myc tag were mixed on ice for 1 hour, and precipitated with anti-FLAG antibody, and the resulting precipitate was developed by SDS-PAGE, and detected using anti-Myc antibody or anti-FLAG antibody.

human LTBP2 = biological target: T2, human LTBP2 (Homo sapiens, UniProt Q14767); assay: In vitro binding assay, FLAG-tagged DANCE constructs with Myc-tagged LTBP2; conditions: protein solutions from 293T cells mixed on ice 1 hour, anti-FLAG precipitation, anti-Myc detection
T2 construct: The portion from the 36th amino acid to the stop codon of human LTBP2; expressed in transfected cells; host or cells: 293T cells; culture supernatant mixed with cell extract
Procedure: as §1, §2

[1] = test system: vascular endothelial cells; assay: Vascular endothelial cell adhesion assay; type: cell-based
Description: Full-length DANCE promotes the adhesion and extension of vascular endothelial cells via cell surface integrin. The present inventor has reported to date that full-length DANCE can serve as a ligand for the integrins αvβ3, αvβ5, and α9β1. Since the domain serving as the ligand is considered to be around the RGD motif of the amino-terminal domain of DANCE, each recombinant protein of a DANCE mutant wherein RGD was replaced with RGE for one-amino-acid substitution (RGE DANCE), and amino-terminal cleaved form of DANCE (ΔND DANCE) were purified, and these, along with full-length DANCE, were subjected to vascular endothelial cell adhesion assay (FIG. 13).

human skin fibroblasts = assay: Formation of elastic fibers in cultured human skin fibroblasts; type: cell-based; conditions: protein added to serum-free medium at 4 μg/ml, cultured for 2 weeks
Procedure: Human fibroblasts were kindly supplied by the Department of Plastic Surgery, Kyoto University Hospital. A cover glass was placed on the bottom of a 24-well plate, on which human fibroblasts were seeded at 7.5×10^4 cells per well, and cultured in a DMEM medium supplemented with 10% FBS at 37° C. in the presence of 5% CO2. After the plate washed with PBS on Day 3, the medium was exchanged with a DMEM/F12 medium not supplemented with FBS, and purified DANCE protein, cleaved form of DANCE protein 4 μg/ml, or FBS was added. Cultivation was continued at 37° C. in the presence of 5% CO2, and the cells were fixed and immunologically stained on Day 14.
On Day 14 of cultivation, the cells were washed with 1 ml of PBS three times, after which they were fixed with 100% methanol at −20° C. for 30 minutes. After washing with PBS, the cells were subjected to blocking with a PBS containing 2% BSA at room temperature for 30 minutes, after which the cells were incubated with the polyclonal anti-elastin antibody (dilution rate 1/100) and the monoclonal anti-FLAG antibody (dilution rate 1/100) at room temperature for at least 1 hour. The cells were washed with PBS and further incubated with the anti-rabbit Alexa Fluor 488 antibody (dilution rate 1/100) and the anti-mouse Alexa Fluor 546 antibody (dilution rate 1/100) at room temperature for 1 hour. After washing with PBS, the cells were fixed with 4% para-formaldehyde at room temperature for 10 minutes and again washed with PBS, after which the sample was mounted onto a glass slide using a DAPI-containing Vectashield. Examination was performed using a confocal microscope.
Human skin fibroblasts were seeded to reach confluency; the medium was replaced with serum-free medium or a medium containing 10% fetal calf serum; the cells were cultured for 2 weeks; the formation of elastic fibers was analyzed by immunostaining with anti-elastin antibody.

T2 sequence (Q14767 36-1821): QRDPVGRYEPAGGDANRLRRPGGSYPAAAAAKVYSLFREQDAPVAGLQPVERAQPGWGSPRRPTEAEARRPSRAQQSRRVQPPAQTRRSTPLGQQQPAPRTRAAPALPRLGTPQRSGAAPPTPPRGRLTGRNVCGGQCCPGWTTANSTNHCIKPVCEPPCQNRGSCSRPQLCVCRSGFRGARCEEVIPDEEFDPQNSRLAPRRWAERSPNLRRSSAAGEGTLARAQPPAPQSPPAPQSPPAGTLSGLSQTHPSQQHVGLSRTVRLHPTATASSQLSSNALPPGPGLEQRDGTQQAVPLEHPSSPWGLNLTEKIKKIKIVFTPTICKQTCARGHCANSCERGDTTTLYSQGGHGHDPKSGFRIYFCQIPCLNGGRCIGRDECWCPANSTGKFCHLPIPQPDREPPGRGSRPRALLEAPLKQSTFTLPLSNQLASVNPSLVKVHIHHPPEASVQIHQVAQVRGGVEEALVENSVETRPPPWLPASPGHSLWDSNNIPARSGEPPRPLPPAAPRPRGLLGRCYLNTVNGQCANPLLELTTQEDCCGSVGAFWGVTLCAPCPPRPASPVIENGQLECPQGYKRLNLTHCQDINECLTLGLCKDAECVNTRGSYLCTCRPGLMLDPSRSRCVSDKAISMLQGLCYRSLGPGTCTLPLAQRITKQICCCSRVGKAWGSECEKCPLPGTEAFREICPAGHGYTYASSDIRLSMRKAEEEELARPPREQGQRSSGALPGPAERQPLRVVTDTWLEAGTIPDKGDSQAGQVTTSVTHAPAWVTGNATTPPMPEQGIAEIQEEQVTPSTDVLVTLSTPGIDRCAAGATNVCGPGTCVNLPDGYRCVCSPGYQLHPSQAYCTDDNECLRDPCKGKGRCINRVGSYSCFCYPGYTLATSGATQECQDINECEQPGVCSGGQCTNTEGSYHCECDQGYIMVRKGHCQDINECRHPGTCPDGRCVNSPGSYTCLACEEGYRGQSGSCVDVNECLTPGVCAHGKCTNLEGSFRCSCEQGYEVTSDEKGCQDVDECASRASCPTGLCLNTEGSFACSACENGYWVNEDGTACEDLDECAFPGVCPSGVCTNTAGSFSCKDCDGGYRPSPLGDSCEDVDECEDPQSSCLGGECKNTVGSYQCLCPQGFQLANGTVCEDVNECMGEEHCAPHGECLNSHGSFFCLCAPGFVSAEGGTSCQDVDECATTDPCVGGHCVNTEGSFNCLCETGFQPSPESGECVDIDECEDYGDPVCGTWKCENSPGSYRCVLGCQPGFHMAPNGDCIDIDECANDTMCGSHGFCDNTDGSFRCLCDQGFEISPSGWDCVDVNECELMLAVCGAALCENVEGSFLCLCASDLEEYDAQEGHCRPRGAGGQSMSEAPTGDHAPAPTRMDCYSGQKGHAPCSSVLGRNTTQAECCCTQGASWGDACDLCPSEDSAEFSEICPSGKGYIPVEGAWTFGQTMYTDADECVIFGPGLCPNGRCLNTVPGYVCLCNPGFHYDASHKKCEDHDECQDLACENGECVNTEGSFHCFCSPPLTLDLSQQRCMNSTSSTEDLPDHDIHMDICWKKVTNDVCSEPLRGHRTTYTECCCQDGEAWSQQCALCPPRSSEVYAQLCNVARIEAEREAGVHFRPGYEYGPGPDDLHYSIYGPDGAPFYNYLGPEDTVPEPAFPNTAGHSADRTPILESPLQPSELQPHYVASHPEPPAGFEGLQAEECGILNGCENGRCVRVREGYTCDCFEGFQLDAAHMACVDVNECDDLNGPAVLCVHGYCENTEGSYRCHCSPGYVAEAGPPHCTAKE

B1: ΔND DANCE: amino-terminal cleaved form of DANCE; 78th to 448th amino acids of SEQ ID NO:2 (SEQ ID NO:8) (protein, listed as Homo sapiens)
chain: GPYSNPYSTPYSGPYPAAAPPLSAPNYPTISRPLICRFGYQMDESNQCVDVDECATDSHQCNPTQICINTEGGYTCSCTDGYWLLEGQCLDIDECRYGYCQQLCANVPGSYSCTCNPGFTLNEDGRSCQDVNECATENPCVQTCVNTYGSFICRCDPGYELEEDGVHCSDMDECSFSEFLCQHECVNQPGTYFCSCPPGYILLDDNRSCQDINECEHRNHTCNLQQTCYNLQGGFKCIDPIRCEEPYLRISDNRCMCPAENPGCRDQPFTILYRDMDVVSGRSVPADIFQMQATTRYPGAYYIFQIKSGNEGREFYMRQTGPISATLVMTRPIKGPREIQLDLEMITVNTVINFRGSSVIRLRIYVSQYPF
- binding of DANCE to each other (human DANCE): no longer binds to each other
- binding of DANCE to LTBP2 (human LTBP2): stronger binding with LTBP2 than full-length DANCE
- binding to cell surface integrin ([1]; discussion statement): no longer binds to cell surface integrin
- cell adhesion activity ([1]; purified recombinant protein used for coating): absolutely no cell adhesion activity
- formation of elastic fibers (anti-elastin immunostaining) (human skin fibroblasts): the formation of elastic fibers was very little
